Numbering of substitutions follows the chain as printed. Names and notes keep the numbering of the source.

This note sets out measurements from publication PMC10786891, “Massively parallel profiling of RNA-targeting CRISPR-Cas13d”.

The chains are these.
T1: EsCas13d, nuclease-dead (Eubacterium siraeum, UniProt B0MS50, R295A;H300A;R849A;H854A)
T1 sequence: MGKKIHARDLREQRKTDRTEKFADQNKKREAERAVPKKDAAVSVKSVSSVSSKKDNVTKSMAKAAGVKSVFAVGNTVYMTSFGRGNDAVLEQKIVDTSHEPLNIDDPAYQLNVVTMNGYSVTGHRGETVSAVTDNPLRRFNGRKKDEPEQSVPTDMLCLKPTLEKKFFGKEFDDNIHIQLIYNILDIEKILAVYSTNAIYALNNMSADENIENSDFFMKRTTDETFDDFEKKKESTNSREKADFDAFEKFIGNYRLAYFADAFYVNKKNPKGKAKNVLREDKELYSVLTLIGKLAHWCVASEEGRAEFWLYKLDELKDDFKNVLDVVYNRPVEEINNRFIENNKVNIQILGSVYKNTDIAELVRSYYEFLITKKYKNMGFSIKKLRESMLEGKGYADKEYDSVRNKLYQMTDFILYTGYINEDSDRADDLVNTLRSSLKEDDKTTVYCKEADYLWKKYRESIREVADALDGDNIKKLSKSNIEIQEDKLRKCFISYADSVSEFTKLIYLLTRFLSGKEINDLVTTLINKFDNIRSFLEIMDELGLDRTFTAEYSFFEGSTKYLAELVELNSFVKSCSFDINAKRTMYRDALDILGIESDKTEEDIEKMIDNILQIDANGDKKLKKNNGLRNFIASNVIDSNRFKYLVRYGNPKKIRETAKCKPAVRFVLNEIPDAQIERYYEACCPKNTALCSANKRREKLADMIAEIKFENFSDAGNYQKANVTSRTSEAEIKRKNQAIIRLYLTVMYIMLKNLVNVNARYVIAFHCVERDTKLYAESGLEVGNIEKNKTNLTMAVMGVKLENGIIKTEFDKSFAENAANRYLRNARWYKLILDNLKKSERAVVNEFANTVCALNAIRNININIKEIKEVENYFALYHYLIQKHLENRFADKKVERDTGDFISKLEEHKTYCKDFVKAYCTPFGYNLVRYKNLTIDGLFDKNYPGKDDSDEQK

B1: target 1 insG 3' of 21,insC 3' of 1 (mixed)
RNA 1: CACCCGUGCAAAAAUGCAGGGGUCUAAAACUGAGCGGAUAACCUCUCUAUGG
RNA 2: GGGAAUGGAUCCACAUCUACGAAUUCGUACCGAUAGAGAGGUUAUCCGCUCACCCGAGAUCGGAAGAGCACACGU
B2: target 1 insG 3' of 21,insG 3' of 1 (mixed)
RNA 1: B1 RNA 1
RNA 2: B1 RNA 2 with C53G
B3: target 1 insG 3' of 21,insA 3' of 2 (mixed)
RNA 1: B1 RNA 1
RNA 2: B1 RNA 2 with C53A
B4: target 3 U2A,U21A (mixed)
RNA 1: CACCCGUGCAAAAUUGCAGGGGUCUAAAACGACCUGAAUAUUUCAGAUCAAA
RNA 2: GGGAAUGGAUCCACAUCUACGAAUUCGUUUAUGAUCUGAAAUAUUCAGGACUGCAGAUCGGAAGAGCACACGU
B5: target 3 U2G,A5C (mixed)
RNA 1: B4 RNA 1
RNA 2: B4 RNA 2 with A31U, A47C, A50G
B6: target 3 U2A,U8G (mixed)
RNA 1: B4 RNA 1
RNA 2: B4 RNA 2 with A31U, U44G
B7: target 3 insG 3' of 5,insU 3' of 4 (mixed)
RNA 1: B4 RNA 1
RNA 2: GGGAAUGGAUCCACAUCUACGAAUUCGUUUUUGAUCUGAAAUAUUCAGGUGUCUGCAGAUCGGAAGAGCACACGU
B8: target 3 C1A,A11G (mixed)
RNA 1: B4 RNA 1
RNA 2: B4 RNA 2 with A31U, A41G, A50U, C51A
B9: target 3 insG 3' of 5,insC 3' of 3 (mixed)
RNA 1: B4 RNA 1
RNA 2: B7 RNA 2 with U50G, G51C
B10: target 3 insG 3' of 8,insU 3' of 5 (mixed)
RNA 1: B4 RNA 1
RNA 2: B7 RNA 2 with U45G, C46U, A47C, G48A, G49U, U50G
B11: target 3 insG 3' of 7,insC 3' of 3 (mixed)
RNA 1: B4 RNA 1
RNA 2: B7 RNA 2 with C46G, A47C, G48A, U50G, G51C
B12: target 3 insA 3' of 6,insG 3' of 6 (mixed)
RNA 1: B4 RNA 1
RNA 2: B7 RNA 2 with G49A, U50G
B13: target 3 insA 3' of 22,insA 3' of 8 (mixed)
RNA 1: B4 RNA 1
RNA 2: GGGAAUGGAUCCACAUCUACGAAUUCGUUUAUUGAUCUGAAAUAUAUCAGGUCUGCAGAUCGGAAGAGCACACGU
B14: target 3 A12G (mixed)
RNA 1: B4 RNA 1
RNA 2: B4 RNA 2 with A31U, A40G, A50U
B15: target 3 C1U,C6A (mixed)
RNA 1: B4 RNA 1
RNA 2: B4 RNA 2 with A31U, C46A, A50U, C51U
B16: target 3 insA 3' of 7,insA 3' of 3 (mixed)
RNA 1: B4 RNA 1
RNA 2: B7 RNA 2 with C46A, A47C, G48A, U50G, G51A
B17: target 3 G4U,U8C (mixed)
RNA 1: B4 RNA 1
RNA 2: B4 RNA 2 with A31U, U44C, G48U, A50U
B18: target 3 insC 3' of 3,insA 3' of 2 (mixed)
RNA 1: B4 RNA 1
RNA 2: B7 RNA 2 with U50C, G51U, U52A
B19: target 3 insG 3' of 7,insA 3' of 2 (mixed)
RNA 1: B4 RNA 1
RNA 2: B7 RNA 2 with C46G, A47C, G48A, U50G, G51U, U52A
B20: target 3 U2A,U8A (mixed)
RNA 1: B4 RNA 1
RNA 2: B4 RNA 2 with A31U, U44A
B21: target 3 A11C,G14U (mixed)
RNA 1: B4 RNA 1
RNA 2: B4 RNA 2 with A31U, G38U, A41C, A50U
B22: target 3 A5U (mixed)
RNA 1: B4 RNA 1
RNA 2: B4 RNA 2 with A31U, A47U, A50U
B23: target 3 G3U,U7G (mixed)
RNA 1: B4 RNA 1
RNA 2: B4 RNA 2 with A31U, U45G, G49U, A50U
B24: target 3 C1G,U21A (mixed)
RNA 1: B4 RNA 1
RNA 2: B4 RNA 2 with A50U, C51G
B25: target 3 insG 3' of 22,insG 3' of 5 (mixed)
RNA 1: B4 RNA 1
RNA 2: B13 RNA 2 with A31G, A46U, U47C, C48A, A49G
B26: target 3 G3U,U22G (mixed)
RNA 1: B4 RNA 1
RNA 2: B4 RNA 2 with U30G, A31U, G49U, A50U
B27: target 3 G3A,G4C (mixed)
RNA 1: B4 RNA 1
RNA 2: B4 RNA 2 with A31U, G48C, G49A, A50U
B28: target 3 insG 3' of 6,insU 3' of 4 (mixed)
RNA 1: B4 RNA 1
RNA 2: B7 RNA 2 with A47G, G48A
B29: target 3 G4A,U22G (mixed)
RNA 1: B4 RNA 1
RNA 2: B4 RNA 2 with U30G, A31U, G48A, A50U
B30: target 3 insG 3' of 8,insC 3' of 4 (mixed)
RNA 1: B4 RNA 1
RNA 2: B7 RNA 2 with U45G, C46U, A47C, G48A, U50C
B31: target 3 insU 3' of 22,insA 3' of 22 (mixed)
RNA 1: B4 RNA 1
RNA 2: GGGAAUGGAUCCACAUCUACGAAUUCGUUUUAUUGAUCUGAAAUAUUCAGGUCUGCAGAUCGGAAGAGCACACGU
B32: target 3 C1A,A5U (mixed)
RNA 1: B4 RNA 1
RNA 2: B4 RNA 2 with A31U, A47U, A50U, C51A

The data set deals with T1, EsCas13d, nuclease-dead. Nature of the data set: crRNA (strand 1, pre-loaded); Mg2+; 40 mM Tris-HCl pH 7.5, 150 mM NaCl, 6 mM MgCl2, 1 mM DTT, 0.1% Tween-20, 0.2 mg/ml BSA; 25 C; 10 min per concentration, then washed. To be noted: tags: His6-TwinStrep-SUMO cleaved; N-terminal SNAP kept (SNAP-Surface 488); label: 3' end held by stalled T7 RNA polymerase.
On to B1, for which the Kd (usually the constant that tells how readily two partners part at equilibrium) is 69 ± 12 nM.
B2: binding was characterised by a dissociation constant (Kd) of 66 ± 10 nM.
The same measure for B3: 54 ± 13 nM; for B4: 39.5 ± 6 nM; for B5: 120 ± 32.5 nM.
With B6 the figure was 29.8 ± 3.4 nM.
With B7 the figure was 20.4 ± 1.8 nM.
For the molecule B8, binding was characterised by a dissociation constant (Kd) of 41 ± 14.5 nM. Compared with the last molecule, the Kd is about 2-fold higher.
The same measure for B9: 76 ± 12.5 nM; for B10: 31.7 ± 2.8 nM; for B11: 46 ± 5 nM.
B12 returned a Kd of 41 ± 4.5 nM.
With B13 the figure was 98.5 ± 35.5 nM; with B14, 43 ± 7.5 nM; with B15, 59 ± 21 nM.
With B16 the figure was 37 ± 4.5 nM; with B17, 39 ± 5 nM; with B18, 18.6 ± 2.2 nM.
The same measure for B19: 32.5 ± 5.75 nM; for B20: 39 ± 6 nM; for B21: 56.5 ± 27 nM.
As to B22, the Kd is 65.5 ± 14.5 nM.
As to B23, the Kd came to 33.1 ± 4.2 nM.
With B24 the figure was 44.5 ± 10.5 nM.
With B25 the figure was 41.5 ± 18 nM; with B26, 94 ± 21.5 nM; with B27, 9.25 ± 0.85 nM.
With B28 the figure was 11.3 ± 1.2 nM.
In turn, B29 registered a Kd of 56.5 ± 9 nM.
The same measure for B30: 38.5 ± 8 nM; for B31: 13.4 ± 1.35 nM.
The same measure for B32: 5.9 ± 1 nM.
